One molecule from paper PMC7497679, “Structure-based design, synthesis, and evaluation of the biological activity of novel phosphoroorganic small molecule IAP antagonists” (Investigational New Drugs, 2020) can be followed below.

This assay deals with X-linked inhibitor of apoptosis protein (XIAP) BIR3 domain (human). Put plainly: fluorescence polarisation; competition: XIAP BIR3 (50 nM) added to the competitor (50 µM to 0.640 nM or to 0.0537 nM), 15 min at r.t., then probe 4 (2 nM), read 30 min later; phosphate buffer pH 7.5 with γ-globulin 100 µg/mL and NaN3 0.02%, final DMSO 1.4%. A general note: In fluorescence polarisation assays a small probe gives low polarisation when free and higher when bound to something large.

B1: tetrapeptide H2N-Ala-Val-Pro-Trp-OH (3) (peptide)
peptide: H-AVPW-OH
In general, EC50 refers to the concentration that produces a half-maximal response. The low end stands for greater potency, the high end for weaker potency. B1 gave an EC50 of 340 nM.
